From US20130210709A1 (ANCHOR THERAPEUTICS, published 2013)
Ends that are not written are not given here. * marks the point of attachment. Palmitoyl = CCCCCCCCCCCCCCCC(=O)*; NHhexadecyl = CCCCCCCCCCCCCCCCN*

B1: CXCR4 i1 loop compound 41 (peptide)
peptide: Palmitoyl-KKLRSMTDKYRLHLSV-NH2
SMILES: CCCCCCCCCCCCCCCC(=O)N[C@@H](CCCCN)C(=O)N[C@@H](CCCCN)C(=O)N[C@@H](CC(C)C)C(=O)N[C@@H](CCCNC(=N)N)C(=O)N[C@@H](CO)C(=O)N[C@@H](CCSC)C(=O)N[C@H](C(=O)N[C@@H](CC(=O)O)C(=O)N[C@@H](CCCCN)C(=O)N[C@@H](Cc1ccc(O)cc1)C(=O)N[C@@H](CCCNC(=N)N)C(=O)N[C@@H](CC(C)C)C(=O)N[C@@H](Cc1c[nH]cn1)C(=O)N[C@@H](CC(C)C)C(=O)N[C@@H](CO)C(=O)N[C@H](C(N)=O)C(C)C)[C@@H](C)O
B2: CXCR4 i1 loop compound 59 (peptide)
peptide: Ac-MGYQKKLRSMTDK-NHhexadecyl
SMILES: CCCCCCCCCCCCCCCCNC(=O)[C@H](CCCCN)NC(=O)[C@H](CC(=O)O)NC(=O)[C@@H](NC(=O)[C@H](CCSC)NC(=O)[C@H](CO)NC(=O)[C@H](CCCNC(=N)N)NC(=O)[C@H](CC(C)C)NC(=O)[C@H](CCCCN)NC(=O)[C@H](CCCCN)NC(=O)[C@H](CCC(N)=O)NC(=O)[C@H](Cc1ccc(O)cc1)NC(=O)CNC(=O)[C@H](CCSC)NC(C)=O)[C@@H](C)O
B3: CXCR4 i1 loop compound 55 (peptide)
peptide: Palmitoyl-MGYQKKLRSMTDKYRLHLSV-NH2
SMILES: CCCCCCCCCCCCCCCC(=O)N[C@@H](CCSC)C(=O)NCC(=O)N[C@@H](Cc1ccc(O)cc1)C(=O)N[C@@H](CCC(N)=O)C(=O)N[C@@H](CCCCN)C(=O)N[C@@H](CCCCN)C(=O)N[C@@H](CC(C)C)C(=O)N[C@@H](CCCNC(=N)N)C(=O)N[C@@H](CO)C(=O)N[C@@H](CCSC)C(=O)N[C@H](C(=O)N[C@@H](CC(=O)O)C(=O)N[C@@H](CCCCN)C(=O)N[C@@H](Cc1ccc(O)cc1)C(=O)N[C@@H](CCCNC(=N)N)C(=O)N[C@@H](CC(C)C)C(=O)N[C@@H](Cc1c[nH]cn1)C(=O)N[C@@H](CC(C)C)C(=O)N[C@@H](CO)C(=O)N[C@H](C(N)=O)C(C)C)[C@@H](C)O
B4: CXCR4 i1 loop compound 35 (peptide)
peptide: Palmitoyl-VMGYQKKLRSMTD-NH2
SMILES: CCCCCCCCCCCCCCCC(=O)N[C@H](C(=O)N[C@@H](CCSC)C(=O)NCC(=O)N[C@@H](Cc1ccc(O)cc1)C(=O)N[C@@H](CCC(N)=O)C(=O)N[C@@H](CCCCN)C(=O)N[C@@H](CCCCN)C(=O)N[C@@H](CC(C)C)C(=O)N[C@@H](CCCNC(=N)N)C(=O)N[C@@H](CO)C(=O)N[C@@H](CCSC)C(=O)N[C@H](C(=O)N[C@@H](CC(=O)O)C(N)=O)[C@@H](C)O)C(C)C
B5: CXCR4 i1 loop compound 33 (peptide)
peptide: MGYQKKLRSMTD-NH2
modifications: not fully specified (N-terminus); also: further groups not given here
B6: CXCR4 i1 loop compound 37 (peptide)
peptide: Palmitoyl-MGYQKKLRSMTDKY-NH2
SMILES: CCCCCCCCCCCCCCCC(=O)N[C@@H](CCSC)C(=O)NCC(=O)N[C@@H](Cc1ccc(O)cc1)C(=O)N[C@@H](CCC(N)=O)C(=O)N[C@@H](CCCCN)C(=O)N[C@@H](CCCCN)C(=O)N[C@@H](CC(C)C)C(=O)N[C@@H](CCCNC(=N)N)C(=O)N[C@@H](CO)C(=O)N[C@@H](CCSC)C(=O)N[C@H](C(=O)N[C@@H](CC(=O)O)C(=O)N[C@@H](CCCCN)C(=O)N[C@@H](Cc1ccc(O)cc1)C(N)=O)[C@@H](C)O
B7: CXCR4 i1 loop compound 36 (peptide)
peptide: Palmitoyl-MGYQKKLRSMTDK-NH2
SMILES: CCCCCCCCCCCCCCCC(=O)N[C@@H](CCSC)C(=O)NCC(=O)N[C@@H](Cc1ccc(O)cc1)C(=O)N[C@@H](CCC(N)=O)C(=O)N[C@@H](CCCCN)C(=O)N[C@@H](CCCCN)C(=O)N[C@@H](CC(C)C)C(=O)N[C@@H](CCCNC(=N)N)C(=O)N[C@@H](CO)C(=O)N[C@@H](CCSC)C(=O)N[C@H](C(=O)N[C@@H](CC(=O)O)C(=O)N[C@@H](CCCCN)C(N)=O)[C@@H](C)O
B8: CXCR4 i1 loop compound 40 (peptide)
peptide: Palmitoyl-YQKKLRSMTDKYRLHLSV-NH2
SMILES: CCCCCCCCCCCCCCCC(=O)N[C@@H](Cc1ccc(O)cc1)C(=O)N[C@@H](CCC(N)=O)C(=O)N[C@@H](CCCCN)C(=O)N[C@@H](CCCCN)C(=O)N[C@@H](CC(C)C)C(=O)N[C@@H](CCCNC(=N)N)C(=O)N[C@@H](CO)C(=O)N[C@@H](CCSC)C(=O)N[C@H](C(=O)N[C@@H](CC(=O)O)C(=O)N[C@@H](CCCCN)C(=O)N[C@@H](Cc1ccc(O)cc1)C(=O)N[C@@H](CCCNC(=N)N)C(=O)N[C@@H](CC(C)C)C(=O)N[C@@H](Cc1c[nH]cn1)C(=O)N[C@@H](CC(C)C)C(=O)N[C@@H](CO)C(=O)N[C@H](C(N)=O)C(C)C)[C@@H](C)O
B9: CXCR4 i1 loop compound 39 (peptide)
peptide: Palmitoyl-MGYQKKLRSMTDKYRLHL-NH2
SMILES: CCCCCCCCCCCCCCCC(=O)N[C@@H](CCSC)C(=O)NCC(=O)N[C@@H](Cc1ccc(O)cc1)C(=O)N[C@@H](CCC(N)=O)C(=O)N[C@@H](CCCCN)C(=O)N[C@@H](CCCCN)C(=O)N[C@@H](CC(C)C)C(=O)N[C@@H](CCCNC(=N)N)C(=O)N[C@@H](CO)C(=O)N[C@@H](CCSC)C(=O)N[C@H](C(=O)N[C@@H](CC(=O)O)C(=O)N[C@@H](CCCCN)C(=O)N[C@@H](Cc1ccc(O)cc1)C(=O)N[C@@H](CCCNC(=N)N)C(=O)N[C@@H](CC(C)C)C(=O)N[C@@H](Cc1c[nH]cn1)C(=O)N[C@@H](CC(C)C)C(N)=O)[C@@H](C)O
B10: CXCR4 i1 loop compound 69 (peptide)
peptide: Palmitoyl-SGYQKKLRSSTD-NH2
SMILES: CCCCCCCCCCCCCCCC(=O)N[C@@H](CO)C(=O)NCC(=O)N[C@@H](Cc1ccc(O)cc1)C(=O)N[C@@H](CCC(N)=O)C(=O)N[C@@H](CCCCN)C(=O)N[C@@H](CCCCN)C(=O)N[C@@H](CC(C)C)C(=O)N[C@@H](CCCNC(=N)N)C(=O)N[C@@H](CO)C(=O)N[C@@H](CO)C(=O)N[C@H](C(=O)N[C@@H](CC(=O)O)C(N)=O)[C@@H](C)O

These binders were tested against CXCR4 receptor (human, UniProt P61073 1-352) (assay: cell-based or functional assay).
Chain of CXCR4 receptor (P61073 whole entry): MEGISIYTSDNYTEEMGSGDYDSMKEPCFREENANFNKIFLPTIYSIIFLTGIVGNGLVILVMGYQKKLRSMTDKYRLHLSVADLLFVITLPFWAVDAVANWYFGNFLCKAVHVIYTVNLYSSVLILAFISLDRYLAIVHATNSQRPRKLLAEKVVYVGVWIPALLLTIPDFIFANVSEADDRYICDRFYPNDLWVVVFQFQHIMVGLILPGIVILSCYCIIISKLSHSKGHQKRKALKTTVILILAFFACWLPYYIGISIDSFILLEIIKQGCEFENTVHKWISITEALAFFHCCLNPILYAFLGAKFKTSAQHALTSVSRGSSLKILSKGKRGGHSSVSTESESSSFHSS
In the case of B1, the “AUC (% of), CHTX, CEM, 1.0 uM” value is reported as 66.7%, the “AUC (% of), CHTX, SUP B-15, 1.0 uM” value is reported as 51.7% and the “Max (% of), CHTX, CEM, 1.0 uM” value is reported as 76.8%. For the same binder, the “Max (% of), CHTX, SUP B-15, 1.0 uM” value was 41.7%, the “Peak Ratio, CHTX, CEM, 1.0 uM” value was 0.01 and the “Peak Ratio, CHTX, SUP B-15, 1.0 uM” value was 0.04.
With B2 the “AUC (% of), CHTX, CEM, 1.0 uM” value was 69%, the “AUC (% of), CHTX, CEM, 1.0 um” value was 51.6% and the “Max (% of), CHTX, CEM, 1.0 uM” value was 84.5%. The “Max (% of), CHTX, CEM, 1.0 um” value was 59.8%, the “Peak Ratio, CHTX, CEM, 1.0 uM” value was 1 and the “Peak Ratio, CHTX, CEM, 1.0 um” value was 1.
For B3, the “Peak Ratio, CHTX, CEM, 1.0 uM” value was 0.2.
For B4, the “AUC (% of), CHTX, CEM, 1.0 uM” value was 57.9%, the “AUC (% of), CHTX, SUP B-15, 1.0 uM” value was 31.7% and the “Max (% of), CHTX, CEM, 1.0 uM” value was 57%. For the same binder, the “Max (% of), CHTX, SUP B-15, 1.0 uM” value was 49.3%, the “Peak Ratio, CHTX, CEM, 1.0 uM” value was 1 and the “Peak Ratio, CHTX, SUP B-15, 1.0 uM” value was 0.2.
For B5, the “Peak Ratio, CHTX, CEM, 1.0 uM” value was 1.
With B6 the “AUC (% of), CHTX, CEM, 1.0 uM” value was 92.3%, the “AUC (% of), CHTX, SUP B-15, 1.0 uM” value was 63.5% and the “Max (% of), CHTX, CEM, 1.0 uM” value was 97.8%. For the same binder, the “Max (% of), CHTX, SUP B-15, 1.0 uM” value was 91.1%, the “Peak Ratio, CHTX, CEM, 1.0 uM” value was 0.04 and the “Peak Ratio, CHTX, SUP B-15, 1.0 uM” value was 0.2.
B7 was tested, and the “AUC (% of), CHTX, CEM, 1.0 uM” value was 102%, the “Max (% of), CHTX, CEM, 1.0 uM” value was 119% and the “Peak Ratio, CHTX, CEM, 1.0 uM” value was 0.2. For the same binder, the “Peak Ratio, CHTX, SUP B15, 1.0 uM” value was 0.2.
With B8 the “AUC (% of), CHTX, SUP B-15, 1.0 uM” value was 71.9%, the “Max (% of), CHTX, SUP B-15, 1.0 uM” value was 71.2% and the “Peak Ratio, CHTX, SUP B-15, 1.0 uM” value was 0.2.
For B9, the “AUC (% of), CHTX, CEM, 1.0 uM” value was 37.5%, the “AUC (% of), CHTX, SUP B-15, 1.0 uM” value was 47.4% and the “Max (% of), CHTX, CEM, 1.0 uM” value was 59.7%. For the same binder, the “Max (% of), CHTX, SUP B-15, 1.0 uM” value was 37.6%, the “Peak Ratio, CHTX, CEM, 1.0 uM” value was 0.04 and the “Peak Ratio, CHTX, SUP B-15, 1.0 uM” value was 0.2.
In the case of B10, the “AUC (% of), CHTX, CEM, 1.0 uM” value is reported as 100%, the “Max (% of), CHTX, CEM, 1.0 uM” value is reported as 93.1% and the “Peak Ratio, CHTX, CEM, 1.0 uM” value is reported as 1.
